Laboratory results taken from US9999664B2, “HIV-1 gp120 mini V3 loop and uses thereof” (The Scripps Research Institute, priority 2011, dated 2018).

How the values were obtained:
[1] = biological target: gp120 JR-FL (HIV-1 JR-FL); test: gp120 ELISA
[2] = biological target: gp120 JR-CSF (HIV-1 JR-CSF) (UniProt P20871); test: gp120 ELISA
[3] = biological target: HIV-1 JR-CSF envelope (Env) on pseudovirus (HIV-1 JR-CSF) (UniProt P20871); test: cell-based or functional assay
[4] = biological target: HIV-1 JR-FL envelope (Env) on pseudovirus (HIV-1 JR-FL); test: cell-based or functional assay
2G12 = 2G12 at 1:10000 dilution; earlier experiment, different version of the microarray; cited from earlier work
plant lectin ConA = biological target: T1, plant lectin ConA (Canavalia ensiformis, UniProt P02866); test: Neoglycolipid microarray binding, ConA; conditions: biotinylated ConA at 0.5 μg/ml
T1 construct: purchased Vector
Protocol: (§1) The microarrays (designated N-glycan-related Array Set 1) consisted of NGLs prepared by reductive amination (70) or oxime ligation (71) (Table S5). These were robotically printed onto nitrocellulose-coated glass slides as described (72), each at two levels (2 and 5 fmol/spot) in duplicate. The binding assays (70) were performed at ambient temperature. The PGTs 127 and 128 were pre-complexed with biotinylated anti-human-IgG (Vector) at a 1:3 ratio, w/w, before applying onto the slides at a final concentration of 10 μg/ml. Biotinylated ConA (Vector) was tested at 0.5 μg/ml. Binding was detected with Alexa-Fluor 647 labelled streptavidin (Molecular Probes) at 1 μg/ml. Microarray data analysis was performed with dedicated software. Binding signals were oligosaccharide dose-related. Results at 5 fmol/spot with selected oligomannose NGLs (prepared by reductive amination) are in FIG. 9A, and the full data with the 50 NGLs are shown in Table S6. Included for comparison are the results with human 2G12 (Polymun Scientific) taken from an earlier experiment performed using a different version of microarrays (73). Antibody 2G12 was analyzed at 1:10000 dilution (without pre-complexation), and the binding was detected with biotinylated anti-human-IgG followed by Alexa-Fluor 647 labelled streptavidin.

PGT 128 = test: Neoglycolipid microarray binding, PGT 128; conditions: PGT 128 at 10 μg/ml pre-complexed with biotinylated anti-human-IgG; 5 fmol/spot
Protocol: as §1

PGT 127 = test: Neoglycolipid microarray binding, PGT 127; conditions: PGT 127 at 10 μg/ml pre-complexed with biotinylated anti-human-IgG; 5 fmol/spot
Protocol: as §1

[5] = biological target: HIV-1 BaL envelope (Env) on pseudovirus (HIV-1 BaL); test: cell-based or functional assay

Compound | fold change in gp120 binding (EC50 variant/EC50 WT) [1] [fold] | fold change in gp120 binding (EC50 variant/EC50 WT) [2] [fold] | Fold change in neutralization (IC50 variant/IC50 WT antibody) [3] [fold] | Fold change in neutralization (IC50 variant/IC50 WT antibody) [4] [fold] | Fluorescence signal intensity 2G12 (2G12) | Fluorescence signal intensity ConA (plant lectin ConA) | Fluorescence signal intensity 128 (PGT 128) | Fluorescence signal intensity 127 (PGT 127) | Fold change in neutralization (IC50 variant/IC50 WT antibody) [5] [fold]
PGT 128 IgG variant HC T73A (antibody) | 2.2 | 1.6 | 1.6 | 77.6 | – | – | – | – | –
CCCCCCCCCCCCCCCCOCC(COP(=O)(O)OCCNCC(NC(C)=O)C(O)C(OC1OC(CO)C(OC2OC(COC3OC(COC4OC(CO)C(O)C(O)C4O)C(O)C(OC4OC(CO)C(O)C(O)C4O)C3O)C(O)C(OC3OC(CO)C(O)C(O)C3OC3OC(CO)C(O)C(O)C3O)C2O)C(O)C1NC(C)=O)C(O)CO)OCCCCCCCCCCCCCCCC (centres unmarked) [Man6GN2-DH] | – | – | – | – | 49 | 19,006 | — (Signal less than 1) | — (Signal less than 1) | –
CCCCCCCCCCCCCCCCOCC(COP(=O)(O)OCCNCC(O)C(O)C(O)C(O)COC1OC(CO)C(O)C(O)C1O)OCCCCCCCCCCCCCCCC (stereo not drawn) [Man2(α6)-DH, Manα-6Man-DH] | – | – | – | – | 205 | 608 | — (Signal less than 1) | — (Signal less than 1) | –
PGT 128 IgG variant HC C52bA (antibody) | – | – | > 2000 | > 3000 | – | – | – | – | > 4000
Glcα-6Glcα-6Glcα-6Glcα-6Glcα-6Glc-AO [Dextran-6-AO] | – | – | – | – | — (Signal less than 1) | 1,138 | — (Signal less than 1) | — (Signal less than 1) | –
PGT 128 IgG variant LC W95A (antibody) | – | – | > 2000 | > 3000 | – | – | – | – | > 4000
PGT 128 IgG variant HC S28A (antibody) | 0.6 | 0.8 | 1.2 | 0.9 | – | – | – | – | –
CCCCCCCCCCCCCCCCOCC(COP(=O)(O)OCCNCC(NC(C)=O)C(O)C(OC1OC(CO)C(OC2OC(COC3OC(COC4OC(CO)C(O)C(O)C4OC4OC(CO)C(O)C(O)C4O)C(O)C(OC4OC(CO)C(O)C(O)C4OC4OC(CO)C(O)C(O)C4O)C3O)C(O)C(OC3OC(CO)C(O)C(O)C3OC3OC(CO)C(O)C(O)C3OC3OC(CO)C(O)C(O)C3O)C2O)C(O)C1NC(C)=O)C(O)CO)OCCCCCCCCCCCCCCCC (centres unmarked) [Man9GN2-DH] | – | – | – | – | 11,717 | 21,359 | 26,071 | 24,209 | –
PGT 128 IgG variant HC K75A (antibody) | 1.6 | 2.1 | 2.9 | 2.9 | – | – | – | – | –
CCCCCCCCCCCCCCCCOCC(COP(=O)(O)OCCNCC(NC(C)=O)C(O)C(OC1OC(CO)C(OC2OC(COC3OC(CO)C(O)C(O)C3O)C(O)C(OC3OC(CO)C(O)C(O)C3O)C2O)C(O)C1NC(C)=O)C(O)COC1OC(C)C(O)C(O)C1O)OCCCCCCCCCCCCCCCC (centres unmarked) [Man3FGN2-DH] | – | – | – | – | 52 | 20,011 | — (Signal less than 1) | — (Signal less than 1) | –
CCCCCCCCCCCCCCCCOCC(COP(=O)(O)OCCNCC(NC(C)=O)C(O)C(OC1OC(CO)C(OC2OC(COC3OC(CO)C(O)C(O)C3O)C(O)C(O)C2O)C(O)C1NC(C)=O)C(O)CO)OCCCCCCCCCCCCCCCC (centres unmarked) [Man2aGN2-DH, Manα-6Manβ-4GlcNAcβ-4GlcNAc-DH] | – | – | – | – | — (Signal less than 1) | 1,923 | — (Signal less than 1) | — (Signal less than 1) | –
PGT 128 IgG variant HC A30Q (antibody) | 1.5 | 1.9 | 2.4 | 11.4 | – | – | – | – | –
CCCCCCCCCCCCCCCCOCC(COP(=O)(O)OCCNCC(NC(C)=O)C(O)C(OC1OC(CO)C(OC2OC(COC3OC(COC4OC(CO)C(O)C(O)C4O)C(O)C(OC4OC(CO)C(O)C(O)C4O)C3O)C(O)C(O)C2O)C(O)C1NC(C)=O)C(O)CO)OCCCCCCCCCCCCCCCC (centres unmarked) [Man4bGN2-DH] | – | – | – | – | — (Signal less than 1) | 16,615 | — (Signal less than 1) | — (Signal less than 1) | –
CCCCCCCCCCCCCCCCOCC(COP(=O)(O)OCCNCC(O)C(OC1OC(CO)C(O)C(O)C1O)C(O)C(O)COC1OC(CO)C(O)C(O)C1O)OCCCCCCCCCCCCCCCC (stereo not drawn) [Man3(α3,α6)-DH] | – | – | – | – | — (Signal less than 1) | 759 | — (Signal less than 1) | — (Signal less than 1) | –
PGT 128 IgG variant LC N94A (antibody) | 1.1 | 0.7 | 3.5 | 1.3 | – | – | – | – | –
PGT 128 IgG variant HC C32A C52bA (antibody) | – | – | > 2000 | > 3000 | – | – | – | – | > 4000
PGT 128 IgG variant HC D100dA (antibody) | 0.1 | 0.1 | 0.5 | 0.3 | – | – | – | – | –
PGT 128 IgG variant HC T100cA (antibody) | 0.9 | 1.2 | 1.5 | 1.2 | – | – | – | – | –
PGT 128 IgG variant HC C32A (antibody) | – | – | > 2000 | > 3000 | – | – | – | – | > 4000
PGT 128 IgG variant HC A70D (antibody) | 1 | 0.5 | 1.9 | – | – | – | – | – | –
PGT 128 IgG variant HC F79A (antibody) | 0.6 | 0.5 | 0.9 | – | – | – | – | – | –
PGT 128 IgG variant HC K64A (antibody) | 0.4 | 0.8 | 1.2 | 1.3 | – | – | – | – | –
PGT 128 IgG variant HC P74A (antibody) | 0.8 | 0.9 | 0.8 | 1.2 | – | – | – | – | –
PGT 128 IgG variant LC D95aA (antibody) | – | – | 68.5 | > 3000 | – | – | – | – | > 4000
